Measured values taken from patent WO2001085789A2 (dated 2001).

Columns and labels:
Ryk-Fc fusion protein [1] = molecular target: T1, Ryk-Fc fusion protein (human); assay: SPR, BIACORE 2000, 25 C; scFv 1B4 amine coupled to CM5 chip, Ryk-Fc 30 to 242 nM injected; KD = koff/kon
T1 chain: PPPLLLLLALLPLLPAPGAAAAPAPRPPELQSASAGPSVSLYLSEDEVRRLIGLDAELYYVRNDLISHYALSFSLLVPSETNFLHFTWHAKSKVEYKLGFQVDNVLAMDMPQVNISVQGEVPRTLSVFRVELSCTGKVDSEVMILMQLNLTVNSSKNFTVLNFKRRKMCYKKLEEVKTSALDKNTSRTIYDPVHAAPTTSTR

Ryk-Fc fusion protein [2] = molecular target: T1, Ryk-Fc fusion protein; assay: SPR, BIACORE 2000, 25 C; scFv 1B4 amine coupled to CM5 chip, Ryk-Fc 30 to 242 nM injected; global fit A + B = AB

Kd (Ryk-Fc fusion protein [1]): 13.3 nM | koff (Ryk-Fc fusion protein [2]): 0.00067 s⁻¹ | kon (Ryk-Fc fusion protein [2]): 50000 M⁻¹ s⁻¹
B1: anti-Ryk scFv 1B4 antibody (scFv, V domains shown)
VH: EVQLVQSGAEVKKPGSSVKVSCKASGGTFSSYAISWVRQAPGQGLEWMGGIIPIFGTANYAQKFQGRVTITADESTSTAYMELSSLRSEDTAVYYCARSYYDWFDYWGQGTLVTVSS
VL: IVLTQPPSVSGAPGQRVTISCSGSSSNIGSNYVSWYQQLPGTAPKLLIYDNNQRPSGVPDRFSGSKSGTSASLAITGLQSEDEADYYCQSWDSIAQIVFGGGTKLTVL
